What all share (assay): G' assay (10 uM PL peptide), results of TABLE 7 and TABLE 12
Holding throughout (type): binding

Assay [1] deals with T1, PDZ protein (GST-PDZ fusion) (Homo sapiens, UniProt Q13796).
T1 construct: made in house; host or cells: E. coli (DH5alpha, BL21 or JM109)
The settings on record: PDZ hAPXL, PDZ Domain 1. The method, boiled down:
(§1)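 Binding classes derive from A450 nm of bound biotin-tagged PL peptide. A score of 5 needs A450 above 4 in more than two repeats.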

Assay [2] addresses T2, PDZ protein (GST-PDZ fusion) (Homo sapiens, UniProt Q8NI35).
T2 construct: made in house; host or cells: E. coli (DH5alpha, BL21 or JM109)
The settings on record: PDZ INADL. The method, boiled down: as §1

For assay [3], the target named is T3, PDZ protein (GST-PDZ fusion) (Homo sapiens, UniProt O15018).
T3 construct: made in house; host or cells: E. coli (DH5alpha, BL21 or JM109)
The method, boiled down:
as §1

The target of assay [4] is T4, PDZ protein (GST-PDZ fusion) (Homo sapiens, UniProt Q14160).
T4 construct: made in house; host or cells: E. coli (DH5alpha, BL21 or JM109)
To be noted: PDZ KIAA0147, PDZ Domain 1. The essentials:
as §1

For assay [5], the target named is T5, PDZ protein (GST-PDZ fusion) (Homo sapiens, UniProt Q86UL8).
T5 construct: made in house; host or cells: E. coli (DH5alpha, BL21 or JM109)
The essentials:
as §1

The target in assay [6] is T6, PDZ protein (GST-PDZ fusion) (Homo sapiens, UniProt P78352).
T6 construct: made in house; host or cells: E. coli (DH5alpha, BL21 or JM109)
The method, boiled down:
as §1

For assay [7], the target named is T7, PDZ protein (GST-PDZ fusion) (Homo sapiens, UniProt Q12959).
T7 construct: made in house; host or cells: E. coli (DH5alpha, BL21 or JM109)
The essentials:
as §1

The target of assay [8] is T8, PDZ protein (GST-PDZ fusion) (Homo sapiens, UniProt Q92796).
T8 construct: made in house; host or cells: E. coli (DH5alpha, BL21 or JM109)
T8 sequence (Q92796 1-817): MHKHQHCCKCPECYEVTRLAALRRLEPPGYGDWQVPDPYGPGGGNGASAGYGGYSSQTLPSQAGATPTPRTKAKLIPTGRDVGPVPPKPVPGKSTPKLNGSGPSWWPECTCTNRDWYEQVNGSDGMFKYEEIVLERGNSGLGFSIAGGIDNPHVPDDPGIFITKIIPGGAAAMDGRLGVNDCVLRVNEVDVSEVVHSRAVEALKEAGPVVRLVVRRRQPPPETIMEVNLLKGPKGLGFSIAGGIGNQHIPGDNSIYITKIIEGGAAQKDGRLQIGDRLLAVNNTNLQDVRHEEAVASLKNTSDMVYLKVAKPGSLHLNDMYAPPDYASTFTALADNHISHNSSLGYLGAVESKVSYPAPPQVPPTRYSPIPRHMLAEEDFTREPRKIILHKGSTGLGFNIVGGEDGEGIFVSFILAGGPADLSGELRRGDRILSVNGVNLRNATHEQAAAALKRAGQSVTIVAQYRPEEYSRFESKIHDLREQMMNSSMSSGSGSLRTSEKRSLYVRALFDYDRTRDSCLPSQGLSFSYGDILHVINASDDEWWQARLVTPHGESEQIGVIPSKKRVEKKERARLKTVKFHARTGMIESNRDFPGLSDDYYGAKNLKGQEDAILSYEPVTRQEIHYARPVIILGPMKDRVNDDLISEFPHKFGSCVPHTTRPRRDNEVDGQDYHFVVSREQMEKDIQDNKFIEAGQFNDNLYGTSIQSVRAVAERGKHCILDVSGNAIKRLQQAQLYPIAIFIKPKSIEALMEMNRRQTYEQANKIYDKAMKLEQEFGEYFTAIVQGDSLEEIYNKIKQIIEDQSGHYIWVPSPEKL
To be noted: PDZ NeDLG. The essentials:
as §1

Where [9] appears, read: PDZ Atrophin-1 Inter. Prot., PDZ Domain 5.

Here are results for 10 compounds from patent publication US20050282743A1, “Molecular interactions in cells” (Arbor Vita Corporation, priority 2001, published 2005).

Ends that are not written are not given here. Peptide text beside a SMILES is read from it. * marks the point of attachment. Biotin = O=C1N[C@H]2[C@H](CS[C@H]2CCCCC(=O)*)N1

T2 sequence (Q8NI35 whole entry, the tested form may be a part): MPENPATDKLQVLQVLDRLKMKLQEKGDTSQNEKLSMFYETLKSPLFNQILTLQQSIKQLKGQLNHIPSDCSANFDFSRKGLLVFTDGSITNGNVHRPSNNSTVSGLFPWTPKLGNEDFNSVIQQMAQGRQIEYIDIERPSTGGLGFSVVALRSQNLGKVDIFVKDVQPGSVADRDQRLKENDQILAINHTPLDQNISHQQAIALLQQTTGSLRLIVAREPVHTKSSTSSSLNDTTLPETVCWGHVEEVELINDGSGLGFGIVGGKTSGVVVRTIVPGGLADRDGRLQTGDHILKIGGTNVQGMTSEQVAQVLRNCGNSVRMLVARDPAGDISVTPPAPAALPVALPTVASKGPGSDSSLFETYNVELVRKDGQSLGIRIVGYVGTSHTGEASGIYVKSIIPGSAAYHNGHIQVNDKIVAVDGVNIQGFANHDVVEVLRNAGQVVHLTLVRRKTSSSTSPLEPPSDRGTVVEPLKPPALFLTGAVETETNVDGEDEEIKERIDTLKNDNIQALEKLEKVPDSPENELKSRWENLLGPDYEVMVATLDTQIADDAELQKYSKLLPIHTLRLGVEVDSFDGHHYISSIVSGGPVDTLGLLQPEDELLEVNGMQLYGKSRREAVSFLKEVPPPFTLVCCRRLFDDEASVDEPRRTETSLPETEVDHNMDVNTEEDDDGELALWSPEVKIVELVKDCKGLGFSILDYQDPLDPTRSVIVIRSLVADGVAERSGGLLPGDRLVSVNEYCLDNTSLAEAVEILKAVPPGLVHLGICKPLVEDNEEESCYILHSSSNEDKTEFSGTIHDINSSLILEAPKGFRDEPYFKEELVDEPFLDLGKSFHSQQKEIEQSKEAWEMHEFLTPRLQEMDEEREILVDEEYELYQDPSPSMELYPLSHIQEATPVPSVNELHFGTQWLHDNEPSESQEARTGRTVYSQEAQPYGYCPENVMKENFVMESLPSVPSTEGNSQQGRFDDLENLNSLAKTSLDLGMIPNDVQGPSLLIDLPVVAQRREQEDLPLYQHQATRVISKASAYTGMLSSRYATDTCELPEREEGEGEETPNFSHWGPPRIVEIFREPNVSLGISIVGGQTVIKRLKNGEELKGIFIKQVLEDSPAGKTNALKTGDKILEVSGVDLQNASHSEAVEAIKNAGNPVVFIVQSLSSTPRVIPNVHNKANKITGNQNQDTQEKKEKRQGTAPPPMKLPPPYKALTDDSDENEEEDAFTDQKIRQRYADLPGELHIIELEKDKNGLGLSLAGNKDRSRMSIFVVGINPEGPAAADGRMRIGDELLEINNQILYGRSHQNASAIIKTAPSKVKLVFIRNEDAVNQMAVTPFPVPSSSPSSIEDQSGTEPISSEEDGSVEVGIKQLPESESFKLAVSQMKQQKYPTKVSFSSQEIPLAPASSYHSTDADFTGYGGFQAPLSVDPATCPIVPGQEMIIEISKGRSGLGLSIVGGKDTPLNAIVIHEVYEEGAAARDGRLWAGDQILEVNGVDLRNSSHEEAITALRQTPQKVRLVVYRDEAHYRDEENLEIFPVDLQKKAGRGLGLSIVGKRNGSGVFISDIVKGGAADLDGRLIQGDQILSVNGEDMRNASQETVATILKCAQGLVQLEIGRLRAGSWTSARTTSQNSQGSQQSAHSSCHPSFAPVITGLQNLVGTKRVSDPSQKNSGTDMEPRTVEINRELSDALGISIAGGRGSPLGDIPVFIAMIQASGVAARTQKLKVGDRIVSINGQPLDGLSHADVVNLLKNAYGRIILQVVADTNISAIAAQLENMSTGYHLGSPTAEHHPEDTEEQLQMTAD
T3 sequence (O15018 whole entry, the tested form may be a part): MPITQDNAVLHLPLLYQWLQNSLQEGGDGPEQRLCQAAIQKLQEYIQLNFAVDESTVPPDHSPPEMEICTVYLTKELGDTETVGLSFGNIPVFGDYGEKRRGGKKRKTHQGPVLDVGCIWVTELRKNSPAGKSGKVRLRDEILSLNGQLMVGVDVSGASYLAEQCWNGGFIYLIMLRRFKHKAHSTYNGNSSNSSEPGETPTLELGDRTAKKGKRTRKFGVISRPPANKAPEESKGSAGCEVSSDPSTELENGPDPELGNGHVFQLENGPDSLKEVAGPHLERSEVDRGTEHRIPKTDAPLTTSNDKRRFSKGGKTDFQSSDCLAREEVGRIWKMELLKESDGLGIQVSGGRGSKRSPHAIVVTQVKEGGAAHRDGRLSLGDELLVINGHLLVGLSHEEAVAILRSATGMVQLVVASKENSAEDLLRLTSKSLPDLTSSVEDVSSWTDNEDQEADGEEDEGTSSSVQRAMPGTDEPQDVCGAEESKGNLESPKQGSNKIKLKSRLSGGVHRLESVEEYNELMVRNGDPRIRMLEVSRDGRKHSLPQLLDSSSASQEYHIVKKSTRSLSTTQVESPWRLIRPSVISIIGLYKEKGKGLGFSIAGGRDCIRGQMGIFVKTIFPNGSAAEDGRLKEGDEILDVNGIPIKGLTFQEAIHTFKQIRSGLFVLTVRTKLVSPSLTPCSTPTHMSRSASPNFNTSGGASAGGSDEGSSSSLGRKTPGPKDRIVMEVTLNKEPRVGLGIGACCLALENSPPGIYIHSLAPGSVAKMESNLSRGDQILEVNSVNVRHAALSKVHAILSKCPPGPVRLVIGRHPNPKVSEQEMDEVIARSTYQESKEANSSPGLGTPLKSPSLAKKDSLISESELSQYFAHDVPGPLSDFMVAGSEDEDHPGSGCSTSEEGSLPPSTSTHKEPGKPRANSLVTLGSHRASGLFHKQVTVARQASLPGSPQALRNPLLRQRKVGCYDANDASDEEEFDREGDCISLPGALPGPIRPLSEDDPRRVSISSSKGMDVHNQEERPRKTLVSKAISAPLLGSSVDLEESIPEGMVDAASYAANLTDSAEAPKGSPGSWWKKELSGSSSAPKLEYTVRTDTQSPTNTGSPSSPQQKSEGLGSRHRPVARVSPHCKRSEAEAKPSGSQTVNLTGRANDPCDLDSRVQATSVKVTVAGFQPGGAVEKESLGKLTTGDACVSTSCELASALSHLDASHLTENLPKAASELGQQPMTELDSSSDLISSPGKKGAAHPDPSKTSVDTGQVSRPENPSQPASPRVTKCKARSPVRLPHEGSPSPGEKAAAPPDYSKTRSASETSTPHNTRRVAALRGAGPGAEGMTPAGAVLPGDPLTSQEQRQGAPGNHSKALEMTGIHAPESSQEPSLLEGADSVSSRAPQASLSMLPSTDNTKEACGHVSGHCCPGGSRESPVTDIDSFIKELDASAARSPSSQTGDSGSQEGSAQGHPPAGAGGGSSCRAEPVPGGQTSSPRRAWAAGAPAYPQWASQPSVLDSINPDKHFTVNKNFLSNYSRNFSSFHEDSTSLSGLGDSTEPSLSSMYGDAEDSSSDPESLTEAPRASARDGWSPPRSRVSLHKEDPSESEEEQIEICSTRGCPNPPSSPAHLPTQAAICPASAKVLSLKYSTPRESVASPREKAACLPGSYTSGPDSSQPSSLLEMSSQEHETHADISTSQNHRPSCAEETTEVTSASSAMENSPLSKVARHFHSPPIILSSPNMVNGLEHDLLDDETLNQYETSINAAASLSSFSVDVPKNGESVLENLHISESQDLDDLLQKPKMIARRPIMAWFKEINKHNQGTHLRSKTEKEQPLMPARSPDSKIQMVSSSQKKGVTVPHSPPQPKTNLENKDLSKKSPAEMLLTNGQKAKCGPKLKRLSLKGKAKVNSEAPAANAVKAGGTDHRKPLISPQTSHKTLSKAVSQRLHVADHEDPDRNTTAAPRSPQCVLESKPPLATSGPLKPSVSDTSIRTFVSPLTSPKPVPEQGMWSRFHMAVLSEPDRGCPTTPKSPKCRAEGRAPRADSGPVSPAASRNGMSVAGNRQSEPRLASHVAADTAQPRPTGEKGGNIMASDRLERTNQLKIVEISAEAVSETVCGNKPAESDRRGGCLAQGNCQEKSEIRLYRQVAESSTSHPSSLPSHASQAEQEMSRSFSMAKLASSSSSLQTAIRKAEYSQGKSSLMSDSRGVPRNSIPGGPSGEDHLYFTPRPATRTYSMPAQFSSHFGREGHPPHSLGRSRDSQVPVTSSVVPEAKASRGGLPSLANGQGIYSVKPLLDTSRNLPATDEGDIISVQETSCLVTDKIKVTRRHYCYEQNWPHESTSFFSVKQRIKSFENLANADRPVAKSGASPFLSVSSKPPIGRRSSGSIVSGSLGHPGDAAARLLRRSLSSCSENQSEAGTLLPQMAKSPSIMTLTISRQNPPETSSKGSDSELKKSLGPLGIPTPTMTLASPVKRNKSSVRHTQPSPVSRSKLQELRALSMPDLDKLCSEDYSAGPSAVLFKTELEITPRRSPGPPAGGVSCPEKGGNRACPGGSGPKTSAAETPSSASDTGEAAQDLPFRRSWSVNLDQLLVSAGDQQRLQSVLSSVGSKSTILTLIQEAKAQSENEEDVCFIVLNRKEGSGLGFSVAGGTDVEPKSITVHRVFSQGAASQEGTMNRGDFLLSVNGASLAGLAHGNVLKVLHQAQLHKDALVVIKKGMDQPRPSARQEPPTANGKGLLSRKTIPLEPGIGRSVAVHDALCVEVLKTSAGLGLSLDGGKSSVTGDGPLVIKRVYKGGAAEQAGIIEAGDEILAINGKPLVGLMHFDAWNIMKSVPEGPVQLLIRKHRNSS

With “A2AC_HUMAN (Modified) (Biotin-DFRPSFKHILFRRARRGFRQ; not fully specified)”, the Classification in assay [1] is 3 (A450 nm 2-3).

Consider “PPATPSPRLALPAHHNATRL (Biotin-PPATPSPRLALPAHHNATRL) [Na+/Pi cotransporter 2]”, for which the Classification in assay [1] and in assay [2] (PDZ Domain 8) was 1 (A450 nm 0-1) each time.

For the compound “VHDAESSDEDGYDWGPATDL (Biotin-VHDAESSDEDGYDWGPATDL) [zona occludens 3 (ZO-3)]”, the Classification in assay [3] (PDZ AIPC, PDZ Domain 1) is 1 (A450 nm 0-1); in assay [1] it was 2 (A450 nm 1-2).

Regarding “QATSRNGHSARQHVVADTEL (Biotin-QATSRNGHSARQHVVADTEL) [CD34]”, the Classification in assay [4] and in assay [5] (setting [9]) was 1 (A450 nm 0-1) in each case.

For the compound “ALVLIAFCIIRRRPSAYQAL (Biotin-ALVLIAFCIIRRRPSAYQAL) [CD68]”, the Classification in assay [1] is 2 (A450 nm 1-2).

Consider “A2AA_HUMAN (modified) (Biotin-HDFRRAFKKILARGDRKRIV; not fully specified)”, for which the Classification in assay [3] (PDZ AIPC, PDZ Domain 1) is reported as 2 (A450 nm 1-2); in assay [1] it was 1 (A450 nm 0-1); in assay [5] (setting [9]), 1 (A450 nm 0-1); in assay [5] (PDZ Atrophin-1 Inter. Prot., PDZ Domain 6), 1 (A450 nm 0-1); in assay [2] (PDZ Domain 3) it was 2 (A450 nm 1-2); in assay [2] (PDZ Domain 4) it was 1 (A450 nm 0-1).

`CC[C@H](C)[C@H](NC(=O)[C@H](CO)NC(=O)[C@H](CCC(=O)O)NC(=O)[C@H](Cc1ccc(O)cc1)NC(=O)[C@H](CC(=O)O)NC(=O)[C@H](CC(N)=O)NC(=O)[C@H](CCC(=O)O)NC(=O)[C@H](CCCCN)NC(=O)CCCC[C@@H]1SC[C@@H]2NC(=O)N[C@@H]21)C(=O)N[C@@H](CO)C(=O)N[C@@H](CC(=O)O)C(=O)N[C@@H](CC(C)C)C(=O)N[C@@H](CCC(N)=O)C(=O)N[C@@H](CCC(N)=O)C(=O)NCC(=O)N[C@@H](CCCNC(=N)N)C(=O)N[C@@H](CC(=O)O)C(=O)N[C@H](C(=O)N[C@H](C(=O)N[C@@H](CCCNC(=N)N)C(=O)N[C@@H](CC(C)C)C(=O)O)[C@@H](C)O)[C@@H](C)CC` [PAG] (Biotin-KENDYESISDLQQGRDITRL-OH; C-terminus assumed): the Classification was 2 (A450 nm 1-2) in assay [1] and 1 (A450 nm 0-1) in assay [5] (setting [9]).

Turning to “ELLQFCRTPNPALKNGQYWV (Biotin-ELLQFCRTPNPALKNGQYWV)”, the Classification in assay [3] (PDZ AIPC, PDZ Domain 1) is 5 (A450 nm of 4 more than 2× repeated); in assay [3] (PDZ KIAA0300, PDZ Domain 1), 2 (A450 nm 1-2); in assay [1], 3 (A450 nm 2-3); in assay [5] (setting [9]) it was 2 (A450 nm 1-2); in assay [5] (PDZ atrophin-1 interacting Protein, PDZ Domain 1), 1 (A450 nm 0-1); in assay [5] (PDZ atrophin-1 interacting Protein, PDZ Domain 3), 2 (A450 nm 1-2). Further, the Classification in assay [2] (PDZ Domain 3) is recorded as 3 (A450 nm 2-3); in assay [2] (PDZ Domain 5), 5 (A450 nm of 4 more than 2× repeated); in assay [2] (PDZ Domain 8) it was 3 (A450 nm 2-3).

Turning to “ISGTPTSTMVHGMTSSSSVV (Biotin-ISGTPTSTMVHGMTSSSSVV) [Clasp-2]”, the Classification in assay [3] (PDZ AIPC, PDZ Domain 1) is recorded as 1 (A450 nm 0-1); in assay [6] (PDZ PSD95, PDZ Domain 1) it was 1 (A450 nm 0-1); in assay [7] (PDZ DLG1, PDZ Domain 1), 1 (A450 nm 0-1); in assay [7] (PDZ DLG1, PDZ Domain 2) it was 1 (A450 nm 0-1); in assay [2] (PDZ Domain 8), 1 (A450 nm 0-1); in assay [8] (PDZ Domain 2), 1 (A450 nm 0-1).

Take “APC—adenomatous polyposis coli protein (ESSGTQSPKRHSGSYLVTSV)”: the Classification in assay [6] (PDZ PSD95, PDZ Domain 1, 2, 3) is given as 5 (A450 nm of 4 more than 2× repeated); in assay [7] (PDZ DLG1, PDZ Domain 1, 2) it was 5 (A450 nm of 4 more than 2× repeated); in assay [4] it was 1 (A450 nm 0-1); in assay [2] (PDZ Domain 8), 2 (A450 nm 1-2); in assay [8] (PDZ Domain 1, 2) it was 4 (A450 nm 3-4).
